We go through one substance from patent EP0730609B1.

For this experiment, the target named is IL4 receptor on the gibbon cell line MLA (gibbon). Put plainly: displacement of 125I-IL4 (83 pM added) from gibbon MLA cells.

“recombinant human IL4 (E. coli, non-glycosylated) (from UniProt P05112 25-153) (ligand)”: the IC50 turned out to be 22 pM.
